Laboratory results: article PMC12341506

Target: 3nv.2 SOSIP Env trimer (HIV-1 (clade C strain 426c))
Assay: cryo-EM structure; single-particle cryo-EM of unliganded 3nv.2 SOSIP Env, from a sample incubated with polyclonal Fabs and purified by SEC in TBS; 2D class averages and 3D map, C1 or C3 symmetry

3nv.2 SOSIP Env trimer showed a stoichiometry N of 3.
